Reference: patent US9329180B2, “Preparation of anti-PEG antibody expressing cell and application thereof” (KAOHSIUNG MEDICAL UNIVERSITY, priority 2010, dated 2016)

B1: 15-2 antibody: anti-methoxyl-PEG IgG2b antibody; VH SEQ ID NO: 9, VL SEQ ID NO: 10 (antibody, V domains shown)
VH: EVKLEESGGGLVQPGGSMKLSCVASGFTFSNYWMNWVRQSPEKGLEWVTEIRSKSNNYATHYAESVKGRFTISRDDSKGSVYLQMNNLRAEDTGIYYCSNRYYWGQGTLVTVSA
VL: DIVMTQSHKFMSTSVRDRVTITCKASQDVNTSVAWYQQKPGQSPKLVIYWASTRHTGVPDRFTGSGSGTDFTLTISNVQSEDLADYFCLQYINYPYTFGGGTKLEIKR
modifications: VH domain of 15-2 antibody; VL domain of 15-2 antibody
B2: AGP3 antibody: monoclonal IgM antibody specific to the PEG backbone; VH SEQ ID NO: 1, VL SEQ ID NO: 2 (antibody, V domains shown)
VH: EVQLVESGGGLVKPGGSLKLSCAASGFTFSDYYMYWVRQTPEKRLEWVATISDDGTYTYYPHSVKGRFTISRDSAKNNLYLQLSSLKSEDTAMYYCARNDARGDYWGQGTSVTVSS
VL: DIVLTQAAFSNPVTLGTSASISCRSSKSLLHSNGITYLYWYLQKPGQSPQLLIYQMSNLASGVPDRFSSSGSGTDFTLRISRVEAEDVGVYYCAQNLELFTFGSGTKLEIKR
modifications: VH domain of AGP3 antibody; VL domain of AGP3 antibody

Experiments:
[1] = system: Lipo-Dox (liposomal doxorubicin conjugated with CH3O-PEG2K); experiment: 3T3/15-2 cell-based or 15-2 antibody-based sandwich ELISA (AGP4-biotin detection); type: binding; conditions: cell-based versus antibody-based capture
Description: To test whether 3T3/15-2 cell-based or 15-2 antibody-based sandwich ELISA could be used to quantify CH3O-PEG molecules, CH3O-PEG (1K, 2K, 5K, and 20K Da) or Lipo-Dox (liposomal doxorubicin conjugated with CH3O-PEG2K) was added to 3T3/15-2 cell or 15-2 antibody coated 96 well/plates, respectively. Captured mPEG molecules were then quantified by sequential addition of biotinylated AGP4 antibody (AGP4-biotin), streptavidin-conjugated horseradish peroxidase (streptavidin-HRP) and ABTS substrate. […] The sensitivity depended on the length of the PEG chain. CH3O-PEG5K and CH3O-PEG2K could be effectively detected at concentrations as low as 1 nM, respectively.

[2] = as above; type: binding; conditions: cell-based versus antibody-based capture
Description: Anti-methoxyl-PEG cells were used as a platform to establish a sandwich ELISA to quantify all kinds of free methoxyl-PEG molecules. 3T3/15-2 cells were seeded into a 96 wells plate. After that, the methoxyl-PEG was added as an analyte, and then a biotinylated anti-PEG antibody (AGP4-Biotin) was used as a detecting antibody. Finally, streptavidin-HRP was added into the 96 wells plate. After adequate washing, the concentration of methoxyl-PEG was known by observing the color intensity of the matrix coated on the 96 wells plate. With existence of serum, this method can quantify all kinds of free methoxyl-PEG molecules (CH3O-PEG2K and CH3O-PEG5K), and the sensitivity was better than using 3T3/AGP3 platform. Therefore, the sandwich ELISA method using 3T3/15-2 platform can sensitively quantify all kinds of methoxyl-PEG molecules.
To test whether 3T3/15-2 cell-based or 15-2 antibody-based sandwich ELISA could be used to quantify CH3O-PEG molecules, CH3O-PEG (1K, 2K, 5K, and 20K Da) or Lipo-Dox (liposomal doxorubicin conjugated with CH3O-PEG2K) was added to 3T3/15-2 cell or 15-2 antibody coated 96 well/plates, respectively. Captured mPEG molecules were then quantified by sequential addition of biotinylated AGP4 antibody (AGP4-biotin), streptavidin-conjugated horseradish peroxidase (streptavidin-HRP) and ABTS substrate. […] The sensitivity depended on the length of the PEG chain. […]

[3] = Direct binding of PEG5K-131I to AGP3 antibody-coated and 3T3/AGP3 cell-coated plates (γ counter)
Description: (§1) To further investigate the potential mechanism that dictates the differential ability in detecting PEG by the cell surface-expressed anti-PEG antibody and coated AGP3 antibody, the present invention compared direct binding of PEG5K-biotin (FIG. 8A) or PEG5K-^131I (FIGS. 8B and 8C) to AGP3 antibody and 3T3/AGP3 cells precoated in 96-well plates.
The 3T3/AGP3 and 3T3/DNS cells (2×10^5 cells/well) were seeded overnight in 96-well plates in culture medium. After extensive washing, captures were fixed by 1% paraformaldehy for 3 min. Plates were blocked with 5% skim milk in PBS for 2 hours at 37° C. PEG5K-^131I was serially diluted and added to the cells at room temperature for 1 h. After washing, 1N NaOH was added to elute the bound PEG5K-^131I. The radioactivity of these samples was counted on a γ counter.

[4] = Direct binding of PEG5K-biotin, AGP3 antibody-based and 3T3/AGP3 cell-based ELISA; conditions: streptavidin-HRP and ABTS, 405 nm
Description: as §1
The 3T3/AGP3 and 3T3/DNS cells (2×10^5 cells/well) were seeded overnight in 96-well plates in culture medium. After extensive washing, captures were fixed by 1% paraformaldehy for 3 min. Plates were blocked with 5% skim milk in PBS for 2 hours at 37° C. PEG5K-biotin was serially diluted and added to the cells at room temperature for 1 h. After washing, streptavidin-HRP and ABTS were sequentially added to the plates to quantify the captured PEG5K-biotin. Color development was measured at 405 nm on a microplate reader. Using this method, the detection limit of PEG5K-biotin in the 3T3/AGP3 cell-based ELISA was 15.6 ng/mL (FIG. 8A).

Molecule	detection of Lipo-Dox, apparent avidity [1]	detection of CH3O-PEG molecules above molecular weight of 2000 Da [2]	signal intensity per well ([3]; 0.74 μCi/mL PEG5K-131I)	signal intensity per well ([3]; 2.22 μCi/mL PEG5K-131I)	signal intensity per well ([3]; 6.67 μCi/mL PEG5K-131I)	signal intensity per well ([3]; 20 μCi/mL PEG5K-131I)	detection limit of PEG5K-biotin [4]
B1	similar, apparent avidities	Only 3T3/15-2 cell-based sandwich ELISA could detect					
B2			114	210	245	293	failed to detect
